In PMC3433420:
pKd: −log10 of the molar value. Where “and” joins values, the source holds several entries; their conditions need not be identical. Identical values can stand only once.

Key:
[1] = biological target: ErbB2 Y1221 non-phosphorylated peptide, rhodamine-labelled (human); test: fluorescence polarisation; saturation binding in solution: rhodamine peptide fixed at 10 nM, protein titrated 0.002-10 uM, 20 min at room temperature; assay buffer 20 mM HEPES, 100 mM KCl, 0.1% Tween-20, 5 mM DTT, pH 7.8; apparent KD
[2] = biological target: ErbB2pY1196 phosphopeptide, rhodamine-labelled (human); test: as above
[3] = biological target: ErbB3pY1307 phosphopeptide, rhodamine-labelled (human); test: as above
[4] = biological target: ErbB2 Y735 non-phosphorylated peptide, rhodamine-labelled (human); test: as above
ABL2 SH2 domain (human) = ABL2 SH2 domain (human) (UniProt P42684); test: peptide or protein array; SH2/PTB proteins spotted on aldehyde slides, rhodamine peptide titrated in buffer B (20 mM HEPES, 100 mM KCl, 0.1% Tween-20, 5 mM DTT, pH 7.8), 1 h at room temperature; replicate assays
BLK SH2 domain (human) = BLK SH2 domain (human) (UniProt P51451); test: as above
BLNK SH2 domain (human) = BLNK SH2 domain (human) (UniProt Q8WV28); test: as above
BTK SH2 domain (human) = BTK SH2 domain (human) (UniProt Q06187); test: as above
HCK SH2 domain (human) = HCK SH2 domain (human) (UniProt P08631); test: as above
NCK1 SH2 domain (human) = NCK1 SH2 domain (human) (UniProt P16333); test: as above
[5] = biological target: PIK3R2 tandem SH2 domains (human) (UniProt O00459); test: as above
[6] = biological target: PLCG2 tandem SH2 domains (human); test: as above
PTK6 SH2 domain (human) = PTK6 SH2 domain (human) (UniProt Q13882); test: as above
[7] = biological target: PTPN6 tandem SH2 domains (human); test: as above
[8] = biological target: RASA1 N-terminal SH2 domain (human) (UniProt P20936); test: as above
[9] = biological target: RASA1 tandem SH2 domains (human); test: as above
[10] = biological target: SH2D1A SH2 domain (human) (UniProt O60880); test: as above
[11] = biological target: SH2D3A SH2 domain (human) (UniProt Q9BRG2); test: as above
[12] = biological target: SH2D3C SH2 domain (human) (UniProt Q8N5H7); test: as above
[13] = biological target: SH3BP2 SH2 domain (human) (UniProt P78314); test: as above
SHF SH2 domain (human) = SHF SH2 domain (human) (UniProt Q7M4L6); test: as above
SRC SH2 domain (human) = SRC SH2 domain (human) (UniProt P12931); test: as above
[14] = biological target: SYK C-terminal SH2 domain (human); test: as above
[15] = biological target: SYK N-terminal SH2 domain (human); test: as above
[16] = biological target: SYK tandem SH2 domains (human); test: as above
TEC SH2 domain (human) = TEC SH2 domain (human) (UniProt P42680); test: as above
TNS1 SH2 domain (human) = TNS1 SH2 domain (human) (UniProt Q9HBL0); test: as above
YES1 SH2 domain (human) = YES1 SH2 domain (human) (UniProt P07947); test: as above
Chain of YES1 SH2 domain (human) (P07947 158-255): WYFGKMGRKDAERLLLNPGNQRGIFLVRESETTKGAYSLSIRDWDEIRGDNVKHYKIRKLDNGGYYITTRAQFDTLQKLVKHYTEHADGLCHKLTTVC

Chain of BLK SH2 domain (human) (P51451 124-220): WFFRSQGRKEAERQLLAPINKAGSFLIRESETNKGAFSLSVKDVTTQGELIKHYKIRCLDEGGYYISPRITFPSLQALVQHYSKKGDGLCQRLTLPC
Chain of SH3BP2 SH2 domain (human) (P78314 457-555): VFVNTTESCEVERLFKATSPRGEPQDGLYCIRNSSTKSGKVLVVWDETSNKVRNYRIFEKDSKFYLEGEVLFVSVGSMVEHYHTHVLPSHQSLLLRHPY
Chain of SHF SH2 domain (human) (Q7M4L6 323-418): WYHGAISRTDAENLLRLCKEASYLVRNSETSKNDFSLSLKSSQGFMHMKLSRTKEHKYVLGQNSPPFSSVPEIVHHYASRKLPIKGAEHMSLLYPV
Chain of SH2D1A SH2 domain (human) (O60880 6-104): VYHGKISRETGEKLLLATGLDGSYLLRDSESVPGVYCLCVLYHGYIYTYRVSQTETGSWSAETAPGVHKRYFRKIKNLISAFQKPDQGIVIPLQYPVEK
Chain of TEC SH2 domain (human) (P42680 247-345): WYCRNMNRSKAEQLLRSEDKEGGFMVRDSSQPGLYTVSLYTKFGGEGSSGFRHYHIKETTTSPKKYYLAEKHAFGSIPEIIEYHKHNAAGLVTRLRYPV
Chain of BTK SH2 domain (human) (Q06187 281-377): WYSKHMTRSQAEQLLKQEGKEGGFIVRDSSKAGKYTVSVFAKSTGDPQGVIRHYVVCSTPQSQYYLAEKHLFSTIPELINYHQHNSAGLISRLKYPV
Chain of HCK SH2 domain (human) (P08631 144-241): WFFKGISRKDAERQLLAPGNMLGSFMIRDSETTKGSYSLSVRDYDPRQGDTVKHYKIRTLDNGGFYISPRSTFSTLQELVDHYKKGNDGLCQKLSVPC
Chain of PIK3R2 tandem SH2 domains (human) (O00459 whole entry, the tested form may be a part): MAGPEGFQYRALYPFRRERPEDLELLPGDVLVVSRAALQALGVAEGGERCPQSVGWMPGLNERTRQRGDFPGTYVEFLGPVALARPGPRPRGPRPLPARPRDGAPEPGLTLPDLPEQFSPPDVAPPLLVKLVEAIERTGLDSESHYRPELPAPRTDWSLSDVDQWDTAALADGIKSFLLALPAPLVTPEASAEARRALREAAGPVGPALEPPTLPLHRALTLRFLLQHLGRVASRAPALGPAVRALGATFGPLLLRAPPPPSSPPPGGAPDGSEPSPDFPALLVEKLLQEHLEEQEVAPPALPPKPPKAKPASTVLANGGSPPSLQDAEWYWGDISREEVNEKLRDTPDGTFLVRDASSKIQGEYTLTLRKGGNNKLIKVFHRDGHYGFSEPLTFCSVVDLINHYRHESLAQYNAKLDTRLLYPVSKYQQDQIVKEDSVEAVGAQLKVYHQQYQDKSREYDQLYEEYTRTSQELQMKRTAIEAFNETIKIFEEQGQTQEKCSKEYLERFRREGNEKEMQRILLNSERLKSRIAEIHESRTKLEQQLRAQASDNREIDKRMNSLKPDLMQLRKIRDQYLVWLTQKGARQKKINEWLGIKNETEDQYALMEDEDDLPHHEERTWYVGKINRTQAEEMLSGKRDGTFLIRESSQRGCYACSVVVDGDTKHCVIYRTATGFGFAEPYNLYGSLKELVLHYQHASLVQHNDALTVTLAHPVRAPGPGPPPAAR
Chain of SH2D3A SH2 domain (human) (Q9BRG2 15-114): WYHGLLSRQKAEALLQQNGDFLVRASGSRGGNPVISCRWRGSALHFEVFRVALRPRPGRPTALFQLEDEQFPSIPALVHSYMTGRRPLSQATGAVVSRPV
Chain of TNS1 SH2 domain (human) (Q9HBL0 1567-1676): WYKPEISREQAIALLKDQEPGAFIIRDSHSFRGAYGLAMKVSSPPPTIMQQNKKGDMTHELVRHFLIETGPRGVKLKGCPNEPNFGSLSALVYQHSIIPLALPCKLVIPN
Chain of BLNK SH2 domain (human) (Q8WV28 346-453): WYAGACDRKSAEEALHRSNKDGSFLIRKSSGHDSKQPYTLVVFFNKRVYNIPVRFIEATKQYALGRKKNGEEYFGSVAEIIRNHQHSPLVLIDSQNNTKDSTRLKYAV
Chain of ABL2 SH2 domain (human) (P42684 173-263): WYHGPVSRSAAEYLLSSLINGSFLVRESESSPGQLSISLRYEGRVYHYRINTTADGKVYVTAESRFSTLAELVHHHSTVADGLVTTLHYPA
Chain of PTK6 SH2 domain (human) (Q13882 78-170): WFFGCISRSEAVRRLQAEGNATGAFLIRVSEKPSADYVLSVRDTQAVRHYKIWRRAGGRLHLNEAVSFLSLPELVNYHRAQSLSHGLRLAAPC
Chain of SH2D3C SH2 domain (human) (Q8N5H7 220-319): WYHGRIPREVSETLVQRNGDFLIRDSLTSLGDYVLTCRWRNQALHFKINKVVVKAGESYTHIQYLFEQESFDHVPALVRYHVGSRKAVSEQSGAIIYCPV
Chain of RASA1 N-terminal SH2 domain (human) (P20936 whole entry, the tested form may be a part): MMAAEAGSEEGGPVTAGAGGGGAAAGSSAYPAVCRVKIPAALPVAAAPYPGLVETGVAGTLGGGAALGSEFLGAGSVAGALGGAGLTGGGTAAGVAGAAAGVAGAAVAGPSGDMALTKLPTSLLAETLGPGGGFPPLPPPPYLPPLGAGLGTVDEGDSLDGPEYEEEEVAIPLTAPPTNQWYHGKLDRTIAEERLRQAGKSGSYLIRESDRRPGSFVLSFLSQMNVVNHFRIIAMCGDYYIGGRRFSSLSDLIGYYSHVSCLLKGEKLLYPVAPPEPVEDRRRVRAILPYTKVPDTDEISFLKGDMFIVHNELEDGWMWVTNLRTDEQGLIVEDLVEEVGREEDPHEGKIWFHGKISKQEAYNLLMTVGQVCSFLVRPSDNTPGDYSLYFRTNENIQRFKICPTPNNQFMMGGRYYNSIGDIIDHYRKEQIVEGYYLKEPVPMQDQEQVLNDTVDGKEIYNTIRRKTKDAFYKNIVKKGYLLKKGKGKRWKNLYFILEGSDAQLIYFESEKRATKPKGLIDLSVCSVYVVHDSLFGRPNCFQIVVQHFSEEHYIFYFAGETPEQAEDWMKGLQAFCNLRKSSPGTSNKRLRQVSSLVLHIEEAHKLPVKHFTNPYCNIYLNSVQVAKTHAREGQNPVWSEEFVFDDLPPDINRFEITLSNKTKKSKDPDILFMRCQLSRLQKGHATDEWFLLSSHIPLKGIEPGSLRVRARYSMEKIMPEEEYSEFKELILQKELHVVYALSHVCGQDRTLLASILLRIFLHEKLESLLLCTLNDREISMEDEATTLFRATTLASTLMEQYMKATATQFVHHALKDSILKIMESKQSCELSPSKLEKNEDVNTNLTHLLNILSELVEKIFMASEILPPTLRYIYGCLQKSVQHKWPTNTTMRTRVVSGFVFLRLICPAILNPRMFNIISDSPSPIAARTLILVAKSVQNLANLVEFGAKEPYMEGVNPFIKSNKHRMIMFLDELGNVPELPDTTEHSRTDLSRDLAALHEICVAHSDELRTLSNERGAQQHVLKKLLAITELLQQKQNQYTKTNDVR

## RASA1 N-terminal SH2 domain (from UniProt P20936 1-1047) (domain or fragment)
[1]
  pKd: 5.43
[2]
  pKd: 5.73
[3]
  pKd: 5.73

## ZAP70 C-terminal SH2 domain (from UniProt P43403 1-619) (domain or fragment)
[4]
  pKd: 4.83

## ErbB2 pY735 phosphopeptide, rhodamine-labelled, for protein microarrays
ABL2 SH2 domain (human)
  pKd: 5.99
BLK SH2 domain (human)
  pKd: 6.10 and 6.29
BLNK SH2 domain (human)
  pKd: 4.33
BTK SH2 domain (human)
  pKd: 5.82
HCK SH2 domain (human)
  pKd: 6.05
NCK1 SH2 domain (human)
  pKd: 5.28
[5]
  pKd: 5.83
[6]
  pKd: 6.24 and 5.54 and 5.99
PTK6 SH2 domain (human)
  pKd: 6.10
[7]
  pKd: 5.27
[8]
  pKd: 5.46
[9]
  pKd: 4.09
[10]
  pKd: 6.13 and 5.79
[11]
  pKd: 6.11
[12]
  pKd: 4.56
[13]
  pKd: 5.41 and 5.80 and 6.20
SHF SH2 domain (human)
  pKd: 6.03 and 5.36
SRC SH2 domain (human)
  pKd: 5.92
[14]
  pKd: 6.04
[15]
  pKd: 6.10 and 5.52
[16]
  pKd: 6.23 and 6.09
TEC SH2 domain (human)
  pKd: 5.49 and 5.06
TNS1 SH2 domain (human)
  pKd: 5.80
YES1 SH2 domain (human)
  pKd: 6.28 and 5.79
